According to paper PMC5121590, “Antibody-antigen kinetics constrain intracellular humoral immunity” (Scientific Reports, 2016):
Changes are numbered by the printed parent chain. Names and notes keep the numbering of the source.

B1: h9C12 Fab N100A (Fab, V domains shown)
VH: VQLKQSGPGLLQPSQRLSITCTVSGFSLGRYGVHWIRQSPGKGLEWLGVIWRGGTTDYNAVFMSRLSINKDDSKSQVFFTMNSLRPDDTAIYYCARQGSAFPLAYWGQGTLVTVSA
VL: NIVMTQTPKFLLVSIGDSITITCKASQSVTNDAAWYQKKPGQSPQLLIYQASTRYTGVPDRFSGSGYGTDFTFTISAVQAEDLAVYFCHQDYSSPLTFGAGTKLELK
notes: source: HEK293E, transiently co-transfected, purified (CaptureSelect CH1, SEC Superdex 75)
B2: h9C12 Fab T55S (Fab, V domains shown)
VH: B1 VH with T55S, A100N
VL: B1 VL
notes: as for B1
B3: h9C12 Fab G29R/R30S (Fab, V domains shown)
VH: B1 VH with G29R, R30S, A100N
VL: B1 VL
notes: as for B1
B4: h9C12 Fab G98C/S99H (Fab, V domains shown)
VH: B1 VH with G98C, S99H, A100N
VL: B1 VL
notes: as for B1
B5: h9C12 Fab G53P (Fab, V domains shown)
VH: B1 VH with G53P, A100N
VL: B1 VL
notes: as for B1
B6: h9C12 Fab Q97A (Fab, V domains shown)
VH: B1 VH with Q97A, A100N
VL: B1 VL
notes: as for B1
B7: h9C12 Fab W51E (Fab, V domains shown)
VH: B1 VH with W51E, A100N
VL: B1 VL
notes: as for B1
B8: 9C12 Fab (original mouse format, SPR) (Fab, V domains shown)
VH: B1 VH with A100N
VL: B1 VL
notes: also called mouse WT 9C12; source: gene fragment synthesized as cDNA; host stated only for the h9C12 variants (HEK293E)
B9: h9C12 Fab (wild type) (Fab, V domains shown)
VH: B1 VH with A100N
VL: B1 VL
notes: also called WT h9C12; humanized 9C12; source: HEK293E, transiently co-transfected, purified (CaptureSelect CH1, SEC Superdex 75)
B10: recombinant humanized IgG1 version of 9C12 (h9C12), wild type (antibody, V domains shown)
VH: B1 VH with A100N
VL: B1 VL
B11: h9C12 Fab G32P (Fab, V domains shown)
VH: B1 VH with G32P, A100N
VL: B1 VL
notes: as for B1
B12: h9C12 Fab Q97R (Fab, V domains shown)
VH: B1 VH with Q97R, A100N
VL: B1 VL
notes: as for B1
B13: h9C12 Fab G98P (Fab, V domains shown)
VH: B1 VH with G98P, A100N
VL: B1 VL
notes: as for B1
B14: h9C12 Fab Q97A/S99A/F101A/L103A (Fab, V domains shown)
VH: B1 VH with Q97A, S99A, A100N, F101A, L103A
VL: B1 VL
notes: also called combined alanine mutations in H3; source: HEK293E, transiently co-transfected, purified (CaptureSelect CH1, SEC Superdex 75)
B15: full-length Adv5 hexon protein (natural protein)
chain: MATPSMMPQWSYMHISGQDASEYLSPGLVQFARATETYFSLNNKFRNPTVAPTHDVTTDRSQRLTLRFIPVDREDTAYSYKARFTLAVGDNRVLDMASTYFDIRGVLDRGPTFKPYSGTAYNALAPKGAPNPCEWDEAATALEINLEEEDDDNEDEVDEQAEQQKTHVFGQAPYSGINITKEGIQIGVEGQTPKYADKTFQPEPQIGESQWYETEINHAAGRVLKKTTPMKPCYGSYAKPTNENGGQGILVKQQNGKLESQVEMQFFSTTEATAGNGDNLTPKVVLYSEDVDIETPDTHISYMPTIKEGNSRELMGQQSMPNRPNYIAFRDNFIGLMYYNSTGNMGVLAGQASQLNAVVDLQDRNTELSYQLLLDSIGDRTRYFSMWNQAVDSYDPDVRIIENHGTEDELPNYCFPLGGVINTETLTKVKPKTGQENGWEKDATEFSDKNEIRVGNNFAMEINLNANLWRNFLYSNIALYLPDKLKYSPSNVKISDNPNTYDYMNKRVVAPGLVDCYINLGARWSLDYMDNVNPFNHHRNAGLRYRSMLLGNGRYVPFHIQVPQKFFAIKNLLLLPGSYTYEWNFRKDVNMVLQSSLGNDLRVDGASIKFDSICLYATFFPMAHNTASTLEAMLRNDTNDQSFNDYLSAANMLYPIPANATNVPISIPSRNWAAFRGWAFTRLKTKETPSLGSGYDPYYTYSGSIPYLDGTFYLNHTFKKVAITFDSSVSWPGNDRLLTPNEFEIKRSVDGEGYNVAQCNMTKDWFLVQMLANYNIGYQGFYIPESYKDRMYSFFRNFQPMSRQVVDDTKYKDYQQVGILHQHNNSGFVGYLAPTMREGQAYPANFPYPLIGKTAVDSITQKKFLCDRTLWRIPFSSNFMSMGALTDLGQNLLYANSAHALDMTFEVDPMDEPTLLYVLFEVFDVVRVHRPHRGVIETVYLRTPFSAGNATT
notes: also called human adenovirus 5 hexon; source: purified from Adv5-infected cells (CsCl-gradient, size exclusion)

Each binder was assayed against T1, recombinant AdV5 hexon protein (Human adenovirus C serotype 5 (HAdV-5), UniProt P04133) (assay: SPR). Settings: both partners purified.
T1 construct: source: bought: AbD Serotech

Point of comparison: B1, Kd 0.9 nM. Against it:
- B2 — within 1.5-fold, 1.2 nM
- B3 — 100-fold higher, 92.8 nM
- B4 — 320-fold higher, 288 nM
- B5 — 370-fold higher, 330 nM
- B6 — 510-fold higher, 462 nM
- B7 — 19000-fold higher, 16900 nM
- B8 — within 1.5-fold, 1 nM
- B9 — within 1.5-fold, 0.8 nM

Point of comparison: B2, koff 0.00095 s⁻¹. Against it:
- B1 — within 1.5-fold, 0.00085 s⁻¹
- B3 — 5.2-fold higher, 0.0049 s⁻¹
- B4 — 5.5-fold higher, 0.0052 s⁻¹
- B5 — 83-fold higher, 0.079 s⁻¹
- B8 — 2.1-fold lower, 0.00045 s⁻¹
- B9 — 1.8-fold lower, 0.00052 s⁻¹

Point of comparison: B1, kon 889000 M⁻¹ s⁻¹. Against it:
- B2 — within 1.5-fold, 795000 M⁻¹ s⁻¹
- B3 — 17-fold lower, 53000 M⁻¹ s⁻¹
- B4 — 49-fold lower, 18000 M⁻¹ s⁻¹
- B5 — 3.7-fold lower, 239000 M⁻¹ s⁻¹
- B8 — 2-fold lower, 447000 M⁻¹ s⁻¹
- B9 — within 1.5-fold, 635000 M⁻¹ s⁻¹

What follows are binders tested against T1, recombinant AdV5 hexon protein (assay: cell-based or functional assay). Settings: not given.

With B10 the “neutralization of Adv5 infection in HEK293T cells” value was roughly 25 fold.

Target: T1, recombinant AdV5 hexon protein
Assay: SPR
Settings: both partners purified
Remark: another data set of the same source

B11: no binding.
B12: no binding.
B13: no binding.
B14: no binding.

Target: the molecule itself
Assay: crystal structure; 9C12 Fab and hexon mixed 1:1 to a 5 mg/ml complex; crystals in 15% MPD, 5% PEG 4K, 0.1 M imidazole pH 8; 2.7 Å
Settings: not given

B15: binds.
